Reference: the supplement of paper PMC10065799, “High-throughput profiling of sequence recognition by tyrosine kinases and SH2 domains using bacterial peptide display” (eLife, 2023)

Assays:
AncSZ = assay: phosphorylation enrichment, bacterial display (enrichment ratio); higher = better substrate or ligand; peptides without Tyr show the background
EPHB1 = EPHB1 (UniProt P54762); assay: as above
EPHB2 = EPHB2 (UniProt P29323); assay: as above
FGFR1 = FGFR1 (UniProt P11362); assay: as above
FGFR3 = FGFR3 (UniProt P22607); assay: as above
Fer (mouse) = assay: as above
Fes = Fes (UniProt P07332); assay: as above
Fes, sequence (P07332 whole entry, looked up): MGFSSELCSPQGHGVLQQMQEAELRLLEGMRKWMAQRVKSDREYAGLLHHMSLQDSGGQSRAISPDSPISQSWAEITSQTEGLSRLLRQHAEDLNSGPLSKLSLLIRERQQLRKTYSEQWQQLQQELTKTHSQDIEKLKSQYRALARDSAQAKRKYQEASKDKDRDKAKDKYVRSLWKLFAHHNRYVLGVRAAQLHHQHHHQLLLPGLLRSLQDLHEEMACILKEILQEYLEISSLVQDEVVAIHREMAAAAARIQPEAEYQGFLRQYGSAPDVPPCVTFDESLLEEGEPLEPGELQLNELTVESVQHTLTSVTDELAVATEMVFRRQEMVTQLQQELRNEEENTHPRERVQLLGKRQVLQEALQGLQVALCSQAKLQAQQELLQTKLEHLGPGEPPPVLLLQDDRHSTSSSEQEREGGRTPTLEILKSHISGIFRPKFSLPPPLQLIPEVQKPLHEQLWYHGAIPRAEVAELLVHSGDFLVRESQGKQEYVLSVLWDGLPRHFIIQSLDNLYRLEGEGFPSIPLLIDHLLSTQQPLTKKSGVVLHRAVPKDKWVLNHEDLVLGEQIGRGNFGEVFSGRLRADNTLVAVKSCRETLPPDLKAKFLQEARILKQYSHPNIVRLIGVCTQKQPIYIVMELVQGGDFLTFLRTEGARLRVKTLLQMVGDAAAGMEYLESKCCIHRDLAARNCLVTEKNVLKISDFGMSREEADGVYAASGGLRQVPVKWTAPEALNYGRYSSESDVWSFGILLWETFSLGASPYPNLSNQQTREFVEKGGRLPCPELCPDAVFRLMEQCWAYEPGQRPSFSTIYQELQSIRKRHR

Fyn = Fyn (UniProt P06241); assay: as above
Hck = Hck (UniProt P08631); assay: as above
Jak2 = Jak2 (UniProt O60674); assay: as above
Jak2, sequence (O60674 whole entry, looked up): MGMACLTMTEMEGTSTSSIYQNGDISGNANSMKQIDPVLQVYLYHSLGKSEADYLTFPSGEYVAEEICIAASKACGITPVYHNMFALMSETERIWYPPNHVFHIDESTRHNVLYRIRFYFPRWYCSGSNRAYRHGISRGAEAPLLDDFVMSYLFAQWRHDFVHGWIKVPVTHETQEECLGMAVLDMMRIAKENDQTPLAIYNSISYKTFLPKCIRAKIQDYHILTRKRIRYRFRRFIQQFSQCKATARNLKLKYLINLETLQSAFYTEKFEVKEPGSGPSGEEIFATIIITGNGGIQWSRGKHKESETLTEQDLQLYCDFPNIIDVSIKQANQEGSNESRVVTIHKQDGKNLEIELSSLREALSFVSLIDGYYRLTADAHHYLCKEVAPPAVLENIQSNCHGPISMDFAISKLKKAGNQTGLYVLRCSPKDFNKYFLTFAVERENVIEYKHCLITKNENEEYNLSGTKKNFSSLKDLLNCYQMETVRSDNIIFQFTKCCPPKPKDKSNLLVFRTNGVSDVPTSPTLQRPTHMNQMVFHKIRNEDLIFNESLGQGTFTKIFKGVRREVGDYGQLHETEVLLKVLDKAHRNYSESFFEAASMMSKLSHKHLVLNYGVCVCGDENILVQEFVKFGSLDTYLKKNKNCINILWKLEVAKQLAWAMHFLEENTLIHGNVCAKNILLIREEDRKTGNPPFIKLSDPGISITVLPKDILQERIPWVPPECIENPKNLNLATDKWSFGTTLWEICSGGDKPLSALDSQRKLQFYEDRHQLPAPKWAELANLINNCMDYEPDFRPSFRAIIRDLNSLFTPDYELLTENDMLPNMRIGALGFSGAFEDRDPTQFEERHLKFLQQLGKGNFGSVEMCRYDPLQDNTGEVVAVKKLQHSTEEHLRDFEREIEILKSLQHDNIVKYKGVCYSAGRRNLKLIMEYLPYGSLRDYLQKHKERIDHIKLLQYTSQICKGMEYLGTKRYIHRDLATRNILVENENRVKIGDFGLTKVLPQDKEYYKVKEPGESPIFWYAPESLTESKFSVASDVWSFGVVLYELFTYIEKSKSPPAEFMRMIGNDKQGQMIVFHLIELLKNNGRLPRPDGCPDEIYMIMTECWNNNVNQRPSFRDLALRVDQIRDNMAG

MERTK = MERTK (UniProt Q12866); assay: as above
c-Abl (mouse) = assay: as above
c-Src = assay: as above
Grb2 SH2 = Grb2 SH2 (UniProt P62993); assay: SH2 binding enrichment of the phosphorylated peptide, bacterial display (enrichment ratio); higher = better substrate or ligand; peptides without Tyr show the background
SHP2-C SH2 = assay: as above
c-Src SH2 = assay: as above
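Throughout, for SH2 binding enrichment of the phosphorylated peptide, bacterial display: peptide library displayed on the E. coli surface as eCPX fusions, selected cells deep-sequenced, score is each peptide's frequency after selection divided by its frequency in the input.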
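Throughout, for phosphorylation enrichment, bacterial display: 11-residue human phosphosite peptides and single-mutation variants displayed on the E. coli surface, counted by deep sequencing, each peptide's frequency after selection divided by its frequency in the unselected input library; frequency after pTyr selection over input frequency; kinase dosed for 20-30% of maximal phosphorylation in three min.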

EPHB2, sequence (P29323 whole entry, looked up): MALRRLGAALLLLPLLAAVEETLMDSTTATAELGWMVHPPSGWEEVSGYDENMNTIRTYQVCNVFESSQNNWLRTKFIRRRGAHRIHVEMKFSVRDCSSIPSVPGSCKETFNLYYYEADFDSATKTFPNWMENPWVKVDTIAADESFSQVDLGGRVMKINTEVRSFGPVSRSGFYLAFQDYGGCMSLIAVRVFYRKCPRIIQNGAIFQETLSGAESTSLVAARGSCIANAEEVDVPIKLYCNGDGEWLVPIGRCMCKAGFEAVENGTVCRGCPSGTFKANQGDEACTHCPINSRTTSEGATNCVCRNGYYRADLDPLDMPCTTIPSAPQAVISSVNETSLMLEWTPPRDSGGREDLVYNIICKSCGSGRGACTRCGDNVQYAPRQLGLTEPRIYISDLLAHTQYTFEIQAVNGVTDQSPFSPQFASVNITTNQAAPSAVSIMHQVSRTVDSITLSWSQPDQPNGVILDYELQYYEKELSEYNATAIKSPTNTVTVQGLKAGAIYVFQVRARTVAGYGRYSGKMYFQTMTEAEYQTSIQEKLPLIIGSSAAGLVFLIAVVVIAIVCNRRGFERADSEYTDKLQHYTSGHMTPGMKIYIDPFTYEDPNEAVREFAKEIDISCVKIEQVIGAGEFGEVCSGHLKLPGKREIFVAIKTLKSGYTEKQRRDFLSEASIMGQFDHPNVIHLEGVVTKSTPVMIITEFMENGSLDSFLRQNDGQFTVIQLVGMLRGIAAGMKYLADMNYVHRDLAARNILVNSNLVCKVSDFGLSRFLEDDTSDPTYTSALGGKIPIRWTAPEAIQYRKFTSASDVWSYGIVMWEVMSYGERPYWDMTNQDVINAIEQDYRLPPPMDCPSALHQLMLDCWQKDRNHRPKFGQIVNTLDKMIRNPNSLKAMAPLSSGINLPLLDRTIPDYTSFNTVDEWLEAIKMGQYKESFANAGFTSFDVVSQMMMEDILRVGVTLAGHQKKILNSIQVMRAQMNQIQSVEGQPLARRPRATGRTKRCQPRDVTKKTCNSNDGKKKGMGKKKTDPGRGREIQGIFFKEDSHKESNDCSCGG
FGFR1, sequence (P11362 whole entry, looked up): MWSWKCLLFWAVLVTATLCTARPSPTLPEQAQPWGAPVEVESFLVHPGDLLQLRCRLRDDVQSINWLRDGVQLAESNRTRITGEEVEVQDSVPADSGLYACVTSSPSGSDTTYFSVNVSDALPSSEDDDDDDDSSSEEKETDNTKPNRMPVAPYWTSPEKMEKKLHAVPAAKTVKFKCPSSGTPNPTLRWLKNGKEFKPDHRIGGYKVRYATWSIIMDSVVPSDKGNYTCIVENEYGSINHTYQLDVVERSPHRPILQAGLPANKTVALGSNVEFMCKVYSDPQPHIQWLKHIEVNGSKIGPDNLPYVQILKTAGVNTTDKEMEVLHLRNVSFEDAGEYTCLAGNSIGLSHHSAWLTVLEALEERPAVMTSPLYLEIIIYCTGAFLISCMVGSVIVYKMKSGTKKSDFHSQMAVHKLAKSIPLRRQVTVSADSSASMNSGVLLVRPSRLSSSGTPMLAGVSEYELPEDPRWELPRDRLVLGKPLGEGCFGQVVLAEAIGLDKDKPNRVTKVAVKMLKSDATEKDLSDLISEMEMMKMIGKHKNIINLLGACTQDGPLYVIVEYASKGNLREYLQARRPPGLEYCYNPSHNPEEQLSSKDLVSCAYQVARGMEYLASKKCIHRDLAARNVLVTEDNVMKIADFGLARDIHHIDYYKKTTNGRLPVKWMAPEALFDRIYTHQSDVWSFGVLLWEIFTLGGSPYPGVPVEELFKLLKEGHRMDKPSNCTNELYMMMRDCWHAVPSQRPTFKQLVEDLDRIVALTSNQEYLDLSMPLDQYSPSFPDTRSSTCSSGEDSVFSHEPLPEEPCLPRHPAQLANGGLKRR
EPHB1, sequence (P54762 whole entry, looked up): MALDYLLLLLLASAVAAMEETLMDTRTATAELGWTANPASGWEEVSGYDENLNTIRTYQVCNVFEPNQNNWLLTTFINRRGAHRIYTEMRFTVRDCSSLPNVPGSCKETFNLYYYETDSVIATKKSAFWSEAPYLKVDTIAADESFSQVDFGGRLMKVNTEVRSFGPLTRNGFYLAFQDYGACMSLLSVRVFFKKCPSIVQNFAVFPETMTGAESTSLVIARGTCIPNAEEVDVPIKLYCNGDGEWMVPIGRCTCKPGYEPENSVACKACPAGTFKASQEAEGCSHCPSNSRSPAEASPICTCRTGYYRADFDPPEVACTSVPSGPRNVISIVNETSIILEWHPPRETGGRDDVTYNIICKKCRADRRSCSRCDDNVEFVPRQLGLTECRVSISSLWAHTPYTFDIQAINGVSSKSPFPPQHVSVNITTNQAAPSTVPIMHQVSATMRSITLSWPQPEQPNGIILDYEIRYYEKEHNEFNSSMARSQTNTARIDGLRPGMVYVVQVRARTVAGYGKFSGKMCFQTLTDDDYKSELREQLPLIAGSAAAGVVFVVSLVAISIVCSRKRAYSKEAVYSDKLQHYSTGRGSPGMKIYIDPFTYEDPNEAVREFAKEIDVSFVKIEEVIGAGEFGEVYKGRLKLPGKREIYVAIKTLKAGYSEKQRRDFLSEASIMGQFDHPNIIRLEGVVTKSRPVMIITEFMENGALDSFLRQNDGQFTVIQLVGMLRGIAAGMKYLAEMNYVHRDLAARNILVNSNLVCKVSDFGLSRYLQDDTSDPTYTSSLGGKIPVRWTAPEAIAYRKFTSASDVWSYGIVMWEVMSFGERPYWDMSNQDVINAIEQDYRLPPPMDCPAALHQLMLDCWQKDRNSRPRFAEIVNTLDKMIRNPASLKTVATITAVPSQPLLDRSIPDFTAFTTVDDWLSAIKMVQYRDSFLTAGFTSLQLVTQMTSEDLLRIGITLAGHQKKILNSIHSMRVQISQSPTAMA

Row | Sequence | SH2 binding enrichment (Grb2 SH2) | SH2 binding enrichment (SHP2-C SH2) | SH2 binding enrichment (c-Src SH2) | phosphorylation enrichment (AncSZ) | phosphorylation enrichment (EPHB1) | phosphorylation enrichment (EPHB2) | phosphorylation enrichment (FGFR1) | phosphorylation enrichment (FGFR3) | phosphorylation enrichment (Fer (mouse)) | phosphorylation enrichment (Fes) | phosphorylation enrichment (Fyn) | phosphorylation enrichment (Hck) | phosphorylation enrichment (Jak2) | phosphorylation enrichment (MERTK) | phosphorylation enrichment (c-Abl (mouse)) | phosphorylation enrichment (c-Src)
1 | NKVKFYIPFMN [NCR1_Y84_D87Y_YF] | 1.64 | 1.22 | 1.57 | 0.897 | 0.551 | 0.528 | 0.431 | 0.519 | 0.507 | 1.02 | 0.437 | 0.436 | 0.824 | 0.482 | 0.699 | 0.413
2 | HILFRYPKEFQ [IDS_Y234_P231L] | 0.625 | 0.791 | 0.572 | 1.33 | 0.822 | 0.797 | 0.866 | 0.92 | 0.779 | 1.19 | 0.63 | 0.603 | 1.59 | 0.573 | 0.744 | 1.64
3 | CENNRYGMGAS [PDHA1_Y227_T231A] | 0.849 | 0.723 | 0.457 | 0.655 | 0.403 | 0.421 | 0.413 | 0.476 | 0.365 | 0.754 | 0.405 | 0.392 | 0.629 | 0.324 | 0.594 | 0.349
4 | RMDGTYACSYT [FLNB_Y704] | 1.17 | 1.02 | 0.923 | 0.934 | 0.876 | 0.85 | 0.538 | 0.579 | 0.617 | 1.02 | 1.87 | 1.74 | 0.92 | 0.757 | 1.47 | 3.25
5 | GLVFLYVEKNQ [PRELP_Y156_M157V] | 1.12 | 1.19 | 0.663 | 1.22 | 0.6 | 0.622 | 0.44 | 0.902 | 0.575 | 1.29 | 0.505 | 0.532 | 1.15 | 0.337 | 0.759 | 0.479
6 | EFISEFCGEII [EZH2_Y641_Y641F] | 1.24 | 0.895 | 0.743 | 1.52 | 0.566 | 0.719 | 0.574 | 0.885 | 0.591 | 1.42 | 0.507 | 0.518 | 1.44 | 0.638 | 1.22 | 0.618
7 | QTLTDYDTRFY [CSNK2A3_Y131_I133T] | 0.815 | 0.757 | 0.678 | 1.01 | 0.861 | 0.667 | 0.612 | 0.69 | 0.749 | 1.25 | 0.556 | 0.619 | 1.06 | 0.483 | 0.692 | 0.428
8 | FNSLLYQVPTS [CALCOCO2_Y358_P357L] | 0.818 | 0.91 | 0.538 | 2.77 | 12 | 18.8 | 1.17 | 1.32 | 15 | 1.06 | 2.58 | 6.55 | 2.1 | 12.5 | 17.8 | 3.65
9 | TVLGEYALPKG [CYP24A1_Y407] | 0.707 | 0.429 | 0.572 | 1.15 | 0.58 | 0.542 | 0.45 | 0.562 | 0.404 | 0.621 | 0.491 | 0.565 | 0.592 | 0.585 | 6.83 | 0.39
10 | HLEKKYVHRDS [CSF1R_Y708_R710H] | 1.26 | 1.17 | 0.659 | 0.615 | 0.471 | 0.314 | 0.42 | 0.678 | 0.585 | 0.612 | 0.585 | 0.399 | 0.358 | 0.438 | 0.276 | 0.34
11 | VIKSSYQVAKA [CPT1B_Y534_E531K] | 0.783 | 0.503 | 0.41 | 0.588 | 0.364 | 0.414 | 0.391 | 0.428 | 0.326 | 0.749 | 0.34 | 0.391 | 0.406 | 0.371 | 0.489 | 0.458
12 | RLLVVYPWTQK [HBG1_Y36_R41K] | 2.31 | 2.19 | 1.76 | 0.842 | 0.581 | 0.529 | 0.473 | 0.69 | 0.468 | 0.926 | 0.508 | 0.547 | 0.63 | 0.32 | 0.617 | 0.388
13 | QTPVLYAMLFH [MPZ_Y220_D224Y_YF] | 1.03 | 0.778 | 0.601 | 0.771 | 6.9 | 4.17 | 2.41 | 2.13 | 6.25 | 1.23 | 4.56 | 5.5 | 1.39 | 7.73 | 1.61 | 4.04
14 | SIKDKYVTAVY [KCNH2_Y611_L615V] | 0.808 | 0.664 | 0.48 | 0.565 | 0.446 | 0.423 | 0.498 | 0.638 | 0.431 | 0.705 | 0.545 | 0.552 | 0.585 | 0.443 | 0.441 | 0.49
15 | CNPRRYPVLMS [OR2T1_Y182_L180R] | 1.1 | 0.954 | 1.18 | 0.625 | 0.49 | 0.496 | 0.384 | 0.485 | 0.358 | 0.833 | 0.501 | 0.373 | 0.822 | 0.411 | 0.59 | 0.494
16 | FTFTSYFMHWV [IGHV1-46_Y51_YF] | 1.71 | 1.19 | 1.03 | 1.16 | 0.437 | 0.648 | 0.5 | 0.765 | 0.495 | 1.13 | 0.474 | 0.451 | 2.37 | 0.391 | 1.05 | 0.608
17 | VIDGKYAFKPK [GTF2E2_Y137] | 0.873 | 0.602 | 0.451 | 0.413 | 0.264 | 0.304 | 0.348 | 0.329 | 0.276 | 0.457 | 0.348 | 0.412 | 0.421 | 0.323 | 0.585 | 0.328
18 | STEPQYQPGEN [SRC_Y530] | 0.814 | 0.712 | 0.558 | 0.825 | 0.516 | 0.566 | 0.478 | 0.476 | 0.392 | 0.817 | 0.383 | 0.499 | 0.681 | 0.356 | 0.564 | 0.38
19 | SSNLYYRCLTA [CNGA3_Y169_W171C] | 0.702 | 0.611 | 0.425 | 1.05 | 0.563 | 0.766 | 0.949 | 1.13 | 0.571 | 1.12 | 0.493 | 0.807 | 1.5 | 1.89 | 0.896 | 0.63

The next lines start with results.

Row | SH2 binding enrichment (Grb2 SH2) | SH2 binding enrichment (SHP2-C SH2) | SH2 binding enrichment (c-Src SH2) | Sequence | phosphorylation enrichment (AncSZ) | phosphorylation enrichment (EPHB1) | phosphorylation enrichment (EPHB2) | phosphorylation enrichment (FGFR1) | phosphorylation enrichment (FGFR3) | phosphorylation enrichment (Fer (mouse)) | phosphorylation enrichment (Fes) | phosphorylation enrichment (Fyn) | phosphorylation enrichment (Hck) | phosphorylation enrichment (Jak2) | phosphorylation enrichment (MERTK) | phosphorylation enrichment (c-Abl (mouse)) | phosphorylation enrichment (c-Src)
20 | 1.13 | 0.627 | 0.931 | SYCYRYCCAAR [SUMF1_Y344_R345C] | 0.968 | 0.392 | 0.553 | 0.47 | 0.769 | 0.457 | 0.976 | 0.43 | 0.497 | 0.679 | 0.437 | 0.622 | 0.369
21 | 0.512 | 0.548 | 0.435 | GARGRYVMGGP [TNK1_Y277] | 0.7 | 0.504 | 0.389 | 0.481 | 0.419 | 0.405 | 0.555 | 0.332 | 0.379 | 0.457 | 0.546 | 0.376 | 0.421
22 | 0.806 | 0.556 | 0.419 | SNFRAYATEPQ [TNNI3_Y29_H34Q_YF] | 0.577 | 0.468 | 0.408 | 0.355 | 0.494 | 0.442 | 0.869 | 0.427 | 0.518 | 0.565 | 0.477 | 0.585 | 0.346
23 | 0.646 | 0.513 | 0.409 | SKNFTYIWWLN [PSG4_Y271_YF] | 1.18 | 0.675 | 0.611 | 0.498 | 0.884 | 0.508 | 1.36 | 0.416 | 0.435 | 1.26 | 0.391 | 0.78 | 0.402
24 | 0.722 | 0.524 | 0.48 | DLDLTSIFPNI [PTEN_Y27_Y27S_YF] | 0.861 | 0.402 | 0.485 | 0.301 | 0.578 | 0.441 | 0.814 | 0.475 | 0.497 | 0.726 | 0.447 | 0.677 | 0.358
25 | 0.951 | 0.785 | 0.506 | SAEKAYHEQLS [TUBA1A_Y282] | 0.558 | 0.462 | 0.424 | 0.604 | 0.572 | 0.425 | 0.844 | 0.428 | 0.443 | 0.619 | 0.418 | 0.511 | 0.369
26 | 0.829 | 2.8 | 0.844 | DGTIVYTGLET [USH2A_Y4487] | 0.821 | 0.525 | 0.528 | 0.755 | 0.636 | 0.468 | 1.01 | 0.706 | 0.773 | 0.901 | 0.465 | 0.764 | 1.05
27 | 0.737 | 0.515 | 0.422 | TVEDHDFEGGI [TKT_Y563_Y563D_YF] | 1.06 | 0.692 | 0.543 | 0.578 | 0.873 | 0.525 | 1.14 | 0.561 | 0.538 | 1.05 | 0.452 | 0.765 | 0.472
28 | 0.906 | 0.262 | 0.378 | RRIHSHRGHLW [VHL_Y112_Y112H] | 0.918 | 0.773 | 0.732 | 0.558 | 0.701 | 0.689 | 1.01 | 0.604 | 0.737 | 0.659 | 0.621 | 0.909 | 0.828
29 | 0.894 | 0.842 | 0.62 | QNVADYMRFLM [RPL5_Y207_YF] | 1.73 | 1.79 | 1.92 | 0.871 | 1.09 | 0.818 | 1.97 | 1.2 | 1.09 | 2.91 | 0.814 | 1.42 | 1.64
